Where a chain is given by its changes, count along the chain named.
T1: Human MAdCAM (human, UniProt Q13477 19-317, limits assumed)
T1 construct: also called huMAdCAM; human MAdCAM-1
T1 sequence (looked up): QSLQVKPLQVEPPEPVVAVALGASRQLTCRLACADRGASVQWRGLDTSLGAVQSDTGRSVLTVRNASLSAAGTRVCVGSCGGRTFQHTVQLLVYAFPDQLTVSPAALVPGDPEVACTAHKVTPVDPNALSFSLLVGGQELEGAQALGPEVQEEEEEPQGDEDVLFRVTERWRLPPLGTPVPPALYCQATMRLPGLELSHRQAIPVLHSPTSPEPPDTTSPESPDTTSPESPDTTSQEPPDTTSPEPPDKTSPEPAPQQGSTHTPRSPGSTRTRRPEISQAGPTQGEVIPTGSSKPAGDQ

B1: MIAB148 (antibody, human IgG1, kappa)
heavy: EVQLLESGGGLVQPGGSLRLSCAASGFTFSDFWMHWVRQAPGKGLEWISYISGDSGYTNYADSVKGRFTISRDNSKNTLYLQMNSLRAEDTAVYYCARDRPYYYYMDVWGKGTTVTVSSASTKGPSVFPLAPSSKSTSGGTAALGCLVKDYFPEPVTVSWNSGALTSGVHTFPAVLQSSGLYSLSSVVTVPSSSLGTQTYICNVNHKPSNTKVDKKVEPKSCDKTHTCPPCPAPEAAGAPSVFLFPPKPKDTLMISRTPEVTCVVVDVSHEDPEVKFNWYVDGVEVHNAKTKPREEQYNSTYRVVSVLTVLHQDWLNGKEYKCKVSNKALPAPIEKTISKAKGQPREPQVYTLPPSREEMTKNQVSLTCLVKGFYPSDIAVEWESNGQPENNYKTTPPVLDSDGSFFLYSKLTVDKSRWQQGNVFSCSVMHEALHNHYTQKSLSLSPGGGGGSAPTSSSTKKTQLQLEHLLLDLQMILNGINNYKNPKLTRMLTFKFYMPKKATELKHLQCLEEELKPLEEALNLAPSKNFHLRPRDLISDINVIVLELKGSETTFMCEYADETATIVEFINRWITFSQSIISTLT
light: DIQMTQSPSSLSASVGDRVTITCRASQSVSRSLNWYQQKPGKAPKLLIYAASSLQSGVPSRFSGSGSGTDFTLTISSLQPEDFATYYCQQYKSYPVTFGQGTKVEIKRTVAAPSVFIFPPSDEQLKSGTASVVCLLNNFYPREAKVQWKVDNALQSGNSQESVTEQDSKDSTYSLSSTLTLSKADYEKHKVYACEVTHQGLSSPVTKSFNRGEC
B2: MIAB139 (antibody)
heavy: B1 heavy
light: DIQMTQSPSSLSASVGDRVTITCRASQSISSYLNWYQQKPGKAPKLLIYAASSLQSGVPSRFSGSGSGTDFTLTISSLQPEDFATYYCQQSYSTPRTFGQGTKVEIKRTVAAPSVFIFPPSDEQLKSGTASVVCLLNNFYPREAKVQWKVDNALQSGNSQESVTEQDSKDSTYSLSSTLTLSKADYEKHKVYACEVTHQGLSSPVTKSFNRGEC
B3: MIAB153 (antibody, human IgG1, kappa)
heavy: B1 heavy
light: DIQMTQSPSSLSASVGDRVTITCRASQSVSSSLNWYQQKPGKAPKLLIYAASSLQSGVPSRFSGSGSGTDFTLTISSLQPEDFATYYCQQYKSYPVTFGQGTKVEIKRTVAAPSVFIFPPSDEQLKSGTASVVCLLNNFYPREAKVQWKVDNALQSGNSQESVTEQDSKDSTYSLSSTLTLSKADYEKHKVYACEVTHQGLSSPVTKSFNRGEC
B4: MIAB129 (antibody, human IgG1, kappa)
heavy: B1 heavy with Y102G
light: DIQMTQSPSSLSASVGDRVTITCRASQSVSRSLAWYQQKPGKAPKLLIYAASSLQSGVPSRFSGSGSGTDFTLTISSLQPEDFATYYCQQYKSYPVTFGQGTKVEIKRTVAAPSVFIFPPSDEQLKSGTASVVCLLNNFYPREAKVQWKVDNALQSGNSQESVTEQDSKDSTYSLSSTLTLSKADYEKHKVYACEVTHQGLSSPVTKSFNRGEC
B5: MIAB141 (antibody, human IgG1, kappa)
heavy: B1 heavy
light: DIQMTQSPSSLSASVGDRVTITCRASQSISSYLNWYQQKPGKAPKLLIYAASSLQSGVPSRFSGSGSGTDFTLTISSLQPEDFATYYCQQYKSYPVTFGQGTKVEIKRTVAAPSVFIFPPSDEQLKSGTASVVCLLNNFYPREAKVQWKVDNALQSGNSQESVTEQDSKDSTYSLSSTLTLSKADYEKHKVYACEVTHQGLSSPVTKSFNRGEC
notes: LCDR1 germlined
B6: MIAB158 (antibody, human IgG1, kappa)
heavy: B1 heavy
light: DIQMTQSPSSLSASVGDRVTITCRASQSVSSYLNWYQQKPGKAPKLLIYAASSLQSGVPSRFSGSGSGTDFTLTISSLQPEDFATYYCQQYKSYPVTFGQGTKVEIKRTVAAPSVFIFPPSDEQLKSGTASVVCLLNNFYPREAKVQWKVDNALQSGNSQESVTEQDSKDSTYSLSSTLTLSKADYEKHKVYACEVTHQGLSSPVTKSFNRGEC
B7: MIAB155 (antibody, human IgG1, kappa)
heavy: B1 heavy
light: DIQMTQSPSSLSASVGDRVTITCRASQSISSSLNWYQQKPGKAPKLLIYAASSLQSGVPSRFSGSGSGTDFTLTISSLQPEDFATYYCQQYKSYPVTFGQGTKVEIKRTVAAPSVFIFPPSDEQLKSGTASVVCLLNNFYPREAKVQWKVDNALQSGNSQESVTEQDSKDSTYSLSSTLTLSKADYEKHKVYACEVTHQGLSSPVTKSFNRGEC
B8: MIAB170 (antibody, human IgG1, kappa)
heavy: B1 heavy with Y105W
light: B4 light
B9: MIAB151 (antibody, human IgG1, kappa)
heavy: B1 heavy
light: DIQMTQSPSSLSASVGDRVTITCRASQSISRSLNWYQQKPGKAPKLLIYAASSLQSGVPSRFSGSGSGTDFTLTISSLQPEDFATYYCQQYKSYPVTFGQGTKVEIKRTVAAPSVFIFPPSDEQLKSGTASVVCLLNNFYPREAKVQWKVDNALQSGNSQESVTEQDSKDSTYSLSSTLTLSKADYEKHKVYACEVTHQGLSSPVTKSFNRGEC
B10: MIAB198 (antibody, human IgG1, kappa)
heavy: B1 heavy with Y105I, T456A
light: B4 light
notes: also called MIAB198-CHO; MIAB198-HEK
B11: MIAB204 (Fc fusion)
chain: APTSSSTKKTQLQLEHLLLDLQMILNGINNYKNPKLTRMLTFKFYMPKKATELKHLQCLEEELKPLEEALNLAPSKNFHLRPRDLISDINVIVLELKGSETTFMCEYADETATIVEFINRWITFSQSIISTLTGGGGSGGGGSGGGGSGGGGSDKTHTCPPCPAPEAAGAPSVFLFPPKPKDTLMISRTPEVTCVVVDVSHEDPEVKFNWYVDGVEVHNAKTKPREEQYNSTYRVVSVLTVLHQDWLNGKEYKCKVSNKALPAPIEKTISKAKGQPREPQVYTLPPSREEMTKNQVSLTCLVKGFYPSDIAVEWESNGQPENNYKTTPPVLDSDGSFFLYSKLTVDKSRWQQGNVFSCSVMHEALHNHYTQKSLSLSPGGGGGSGGGGSGGGGSEVQLLESGGGLVQPGGSLRLSCAASGFTFSDFWMHWVRQAPGKGLEWISYISGDSGYTNYADSVKGRFTISRDNSKNTLYLQMNSLRAEDTAVYYCARDRPYYYYMDVWGKGTTVTVSSGGGGSGGGGSGGGGSGGGGSDIQMTQSPSSLSASVGDRVTITCRASQSVSRSLAWYQQKPGKAPKLLIYAASSLQSGVPSRFSGSGSGTDFTLTISSLQPEDFATYYCQQYKSYPVTFGQGTKVEIK
B12: MIAB183 (antibody, human IgG1, kappa)
heavy: B1 heavy with D31S, F32Y, I48V, Y50A, D54S, S55G, Y57S, N59Y
light: B4 light with R31S
notes: also called MIAB183-001
B13: MIAB184 (antibody, human IgG1, kappa)
heavy: B1 heavy with D31S, F32Y, I48V, Y50A, D54S, S55G, Y57S, N59Y
light: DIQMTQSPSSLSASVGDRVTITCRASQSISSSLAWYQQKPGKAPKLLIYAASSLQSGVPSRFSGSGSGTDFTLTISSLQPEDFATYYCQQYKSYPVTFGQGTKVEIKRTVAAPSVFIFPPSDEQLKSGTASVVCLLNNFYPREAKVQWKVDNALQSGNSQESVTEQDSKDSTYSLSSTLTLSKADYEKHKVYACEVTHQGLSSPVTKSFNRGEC
notes: also called MIAB184-001
B14: MIAB182 (antibody, human IgG1, kappa)
heavy: B1 heavy with D31S, F32Y, I48V, Y50A, D54S, S55G, Y57S, N59Y
light: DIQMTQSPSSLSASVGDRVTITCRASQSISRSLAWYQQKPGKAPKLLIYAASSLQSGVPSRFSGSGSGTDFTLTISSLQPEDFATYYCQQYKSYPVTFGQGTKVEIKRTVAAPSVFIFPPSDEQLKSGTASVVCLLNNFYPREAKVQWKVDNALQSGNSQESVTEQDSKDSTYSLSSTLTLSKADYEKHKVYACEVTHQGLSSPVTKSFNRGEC
notes: also called MIAB182-001
B15: MIAB178 (antibody, human IgG1, kappa)
heavy: B1 heavy with D31S, F32Y, Y50A, D54S, Y57S, N59Y
light: B4 light
notes: also called MIAB178-001

Target: T2, Insulin (UniProt P01308 25-54; P01308 90-110)
T2 construct: Polyreactivity antigen; mature insulin has A and B chains; also called human insulin
Assay: ELISA on insulin-coated plate

Row | Binder | binding result
1 | B1 | no binding (tested: 100 nM)
2 | B2 | no binding (tested: 100 nM)
3 | B3 | no binding (tested: 100 nM)
4 | B4 | no binding (tested: 100 nM)
5 | B5 | no binding (tested: 100 nM)
6 | B6 | no binding (tested: 100 nM)
7 | B7 | no binding (tested: 100 nM)
8 | B8 | no binding (tested: 100 nM)
9 | B9 | no binding (tested: 100 nM)
10 | B10 | no binding (tested: 100 nM)
11 | B11 | no binding (tested: 100 nM)

Target: T1, Human MAdCAM
Assay: BLI Octet, AHC capture

Row | Binder | Kd [nM] | koff [s⁻¹] | kon [M⁻¹ s⁻¹] | fold reduction of affinity vs PRNT1 [fold] | binding result
12 | B1 | 2690 | 0.314 | 117000 |  | 
13 | B3 | 8360 | 0.543 | 64800 |  | 
14 | B12 | 362 | 0.0599 | 166000 | 20 | 
15 | B5 |  |  |  |  | no binding (tested: 150 nM)
16 | B13 | 563 | 0.0818 | 145000 | 40 | 
17 | B14 | 119 | 0.0267 | 226000 | 10 | 
18 | B15 | 519 | 0.22 | 372000 |  | 
19 | B8 |  |  |  |  | no binding (tested: 1 µM)
20 | B9 | 2960 | 0.292 | 98700 |  | 

Target: T2, Insulin
Assay: ELISA on insulin-coated plate, 100 nM
Description: Non-specific DNA and Insulin binding is predictive of poor pharmacokinetics (PK). An immunosorbent plate was coated with dsDNA at a concentration of 1 μg/mL or Insulin at 5 μg/mL in PBS pH 7.4, 75 μl/well, and incubated overnight at 4° C. Wells were washed with PBS pH 7.4 containing 0.05% Tween-20 (wash buffer) three times, and then blocked with 200 μl/well 1% BSA in PBS pH 7.4 (block buffer) for two hours at room temperature. […] The diluted material was added to the DNA/insulin coated plate at 75 μl/well for 1 hour at room temperature. After three washes with wash buffer, a donkey anti-human FcY HRP conjugated polyclonal antibody, diluted to 1:5000 in assay buffer, was added to the plate at 75 μl/well for 1 hr at room temperature. After three washes with wash buffer and three washes with wash buffer (with no tween-20), the assay was developed with TMB, and stopped with 1N HCL. OD 450 nm was measured. The experiment included appropriate controls for non-specific binding of test articles to the plate/block in the absence of DNA or insulin.

Row | Binder | Insulin polyreactivity score
21 | B1 | 3.63
22 | B2 | 2.08
23 | B3 | 2.46
24 | B4 | 2.43
25 | B6 | 2.67
26 | B7 | 1.99
27 | B8 | 4.73
28 | B9 | 3.63
29 | B11 | 8.43

Source: patent US20240132591A1 (PANDION OPERATIONS, published 2024)
